{
  "source": "patent US12187807B2",
  "about": "“Antibody molecules to C5AR1 and uses thereof” (Visterra, Inc., priority 2020, dated 2025)",
  "molecules": {"B1": {"name": "clone 329: anti-C5aR1 Site II antibody; VH SEQ ID NO: 492, VL SEQ ID NO: 552 (antibody, V domains shown)", "VH": "QVQLQQSGAELTKPGASVKLSCKASGYTFTNYWMHWVKQRPGQGLEWIGYLNPSSGYTKYNQKFKDKATLTADKSSSTAYMQLNSLTYEDSAVYYCTRSGGDNYGNPYYFDRWGQGTTVTVSS", "VL": "DVVMTQTPLSLTVSLGDQASISCRSSQSLVHSNGNTYLHWYLQKPGQSPKFLIYKVSNRFSGVPDRFSGSGSGTDFRLKISRVEAEDLGVYFCSQSTLVPLTFGAGTKLEIK"}, "B2": {"name": "clone 583: anti-C5aR1 Site I antibody; VH SEQ ID NO: 536, VL SEQ ID NO: 595 (antibody, V domains shown)", "VH": "EVQLVESGGGLVKPGGSLKLSCAASGFTFNAYAMSWVRQTPEKRLEWVASISTGGNTYCPDSVKDRFTVSRDNVRNILYLQMSSLRSEDTAMYYCTRGYQRFSGFAYWGQGTLVTVS", "VL": "DVVMTQTPLSPPVSLGYQASISCRSSQSLVHSNGNTYLNWYLQKPGQSPKLLIYKVSNRLSGVPDRFSGSGSGTDFTLKISRVETEDLGVYFCSQSTHVPYTFGGGTKLEIK"}, "B3": {"name": "clone 66: anti-C5aR1 Site I antibody; VH SEQ ID NO: 483, VL SEQ ID NO: 543 (antibody, V domains shown)", "VH": "QVQLQQSDAELVKPGASVKISCKASGYTFIDHAIHWVKQRPEQGLEWIGYISPGNGEIKYNEKFKAKATLTADKSSSAAYMQLNSLTSADSAVYFCKRALFYYTGKYQPMDYWGQGTTVTDSS", "VL": "DIVMTQSQKFMSTTAGDRVSITCKASQNVGSAVVWYQQKPGRSPKLLIYSSSIRYTGVPDRFTGSGSGTDFTLTINSVQSEDLADYFCQQYNSFPLTFGAGTKLEIK"}},
  "assay_in_all_cases": "Alanine scanning / mutagenesis epitope mapping of C5aR1",
  "format_in_all_cases": "binding",
  "key": {"[1]": {"molecular_target": "T1, C5aR1 mutants (N-terminus, ECL1, ECL2, ECL3) (Homo sapiens, UniProt P21730, E179A/K279N)", "T1 sequence (P21730 with tags, fused parts or gaps E179A/K279N)": "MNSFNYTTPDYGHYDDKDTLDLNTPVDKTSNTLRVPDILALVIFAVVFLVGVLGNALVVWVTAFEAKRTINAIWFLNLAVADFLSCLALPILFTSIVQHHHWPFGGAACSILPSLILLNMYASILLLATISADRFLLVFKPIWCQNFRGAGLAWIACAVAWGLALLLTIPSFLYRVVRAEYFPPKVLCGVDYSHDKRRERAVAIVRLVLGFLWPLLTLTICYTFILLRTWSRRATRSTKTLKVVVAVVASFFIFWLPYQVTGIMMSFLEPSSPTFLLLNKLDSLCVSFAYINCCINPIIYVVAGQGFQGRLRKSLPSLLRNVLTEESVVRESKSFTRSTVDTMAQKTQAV", "settings": "E179A", "source_text": "(§1) FIG. 5A is a diagram showing the results of alanine scanning mutations of site I interaction with mab 583. The N-terminal amino acid sequence of C5aR1 is listed across the top of the figure. Glycosylation sites are indicated by rectangle boxes. The only natural glycosylation site is at position N5. The other sites were introduced by mutagenesis. Mutations that abolished clone 583 binding are circled. The sulfated tyrosines at positions 11 and 14 are marked with a star sign. FIG. 5B is a diagram showing results of alanine scanning mutations of site I interaction with mab 66. Mutations that abolished clone 66 binding are circled. The sulfated tyrosines at positions 11 and 14 are marked with a star sign.\n(§2) Ala substitutions of T8 & D10 moderately reduces its affinity while Y11 & D15 abolishes mAb binding. […] N-glycosylation of at N17 or D17P also abolishes mAb binding. N5 glycan is tolerated but a tandem glycosylation (N5 & N17) is not tolerated. mAb core epitopes are T8-G12 but nature of AA present in D15-D18 influence its binding. […] The core epitope appears to be located near T8-G12, with additional contributions from D15-D18.\n(§3) Clone 66 was previously characterized as a site I binder and its binding is dependent on tyrosine sulfation at positions 11Y and/or 14Y. […] It should be noted that the only the only non-human species to retain clone 66 binding was baboon, which is the only NHP that retains the DYGHY motif.\n(§4) However, it was unknown if additional contacts were made with ECL1 or ECL3. […] The data is highlighted in FIG. 5C-5E.\n(§5) The core epitope of clone 11 is from E180-P183; the core epitope of clone 329 is from E180-P184; and the core epitope of clone 336 is from R178-P183. […] The data for clones 11, 329, and 336 is highlighted in FIG. 5F."}, "[2]": {"molecular_target": "T2, C5aR1 mutants (N-terminus, ECL1, ECL2, ECL3) (Homo sapiens, UniProt P21730, K17N/K279N)", "T2 sequence (P21730 with tags, fused parts or gaps K17N/K279N)": "T1 sequence (P21730 with tags, fused parts or gaps E179A/K279N) with K17N, A179E", "settings": "insertion of a glycan at K17N", "source_text": "as §1, §2, §3, §4, §5"}, "[3]": {"molecular_target": "T3, C5aR1 mutants (N-terminus, ECL1, ECL2, ECL3) (Homo sapiens, UniProt P21730, K279N/Y11A)", "T3 sequence (P21730 with tags, fused parts or gaps Y11A/K279N)": "T1 sequence (P21730 with tags, fused parts or gaps E179A/K279N) with Y11A, A179E", "settings": "Y11A", "source_text": "as §1, §2, §3, §4, §5"}, "[4]": {"molecular_target": "T4, C5aR1 mutants (N-terminus, ECL1, ECL2, ECL3) (Homo sapiens, UniProt P21730, G12E/K279N)", "T4 sequence (P21730 with tags, fused parts or gaps G12E/K279N)": "T1 sequence (P21730 with tags, fused parts or gaps E179A/K279N) with G12E, A179E", "settings": "G12E (as in cyno and rhesus)", "source_text": "as §1, §2, §3, §4, §5"}, "[5]": {"molecular_target": "T5, C5aR1 mutants (N-terminus, ECL1, ECL2, ECL3) (Homo sapiens, UniProt P21730, K279N/Y14F)", "T5 sequence (P21730 with tags, fused parts or gaps Y14F/K279N)": "T1 sequence (P21730 with tags, fused parts or gaps E179A/K279N) with Y14F, A179E", "settings": "Y14F", "source_text": "as §1, §2, §3, §4, §5"}},
  "note": "Positions count from the first letter of the chain named.",
  "data": [
    {"molecule": "B1", "values": [
      {"measurement": "binding to C5aR1 mutant", "setting": "[1]", "result": "did not reduce antibody affinity"}
    ]},
    {"molecule": "B2", "values": [
      {"measurement": "binding to C5aR1 mutant", "setting": "[2]", "result": "abolishes binding"},
      {"measurement": "binding to C5aR1 mutant", "setting": "[3]", "result": "abolishes binding"}
    ]},
    {"molecule": "B3", "values": [
      {"measurement": "binding to C5aR1 mutant", "setting": "[4]", "result": "abolishes binding"},
      {"measurement": "binding to C5aR1 mutant", "setting": "[5]", "result": "abolished binding"}
    ]}
  ]
}
